From US20170010270A1 (Chugai, published 2017)

How the values were obtained:
[1] = biological target: T1, GPC3 peptide, amino acid position 321-350 (SEQ ID NO: 17) (human); test: ELISA on immobilised peptide, antibody at 2 µg/mL
T1 construct: synthetic 30-residue peptide of GPC3
T1 peptide: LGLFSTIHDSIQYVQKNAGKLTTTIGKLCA
Procedure: In order to identify more detailed epitopes for the antibodies, the amino acid sequence of GPC3 was divided into peptides of 30 residues containing 10-residue overlaps, and the corresponding peptides were synthesized (SEQ ID NOs: 1 to 29 in Table 2). Each peptide thus synthesized was dissolved at a concentration of 1 mg/mL in dimethyl sulfoxide and then diluted to 1 μg/mL with PBS. The diluted peptide solution was added at 70 μL/well to a 96-well plate and immobilized thereon at room temperature for 1 hour. After removal of unimmobilized peptides, 20% Blocking-one (Nacalai Tesque, Inc.) was added thereto as a blocking buffer solution at 200 μL/well, and the plate was blocked overnight. After removal of the blocking buffer solution, each well was washed with TBS-T three times, and each antibody diluted to 2 μg/mL with a blocking buffer was then added thereto at 70 μL/well. One hour later, the antibody was removed, and each well was washed three times by the addition of TBS-T at 200 μL/well. An HRP-bound anti-mouse antibody was added at 70 μL/well to each well and reacted therewith for 1 hour. […] The reaction was terminated by the addition of 1% SDS at 70 μL/well, and the absorbance at 405 nm was measured using a plate reader.

[2] = biological target: T2, AW3, C-terminally His-tagged recombinant product of positions 1 to 218 of GPC3 (human, UniProt P51654 25-218); test: Western blot of CHO cell pellets, reducing
T2 construct: Expressed in CHO cells; cell pellets used in reducing Western blot; Construct is stated from position 1; not shown: C-terminal His tag

[3] = biological target: T3, AW2, C-terminally His-tagged recombinant product of positions 1 to 196 of GPC3 (human, UniProt P51654 25-196); test: Western blot of CHO cell pellets, reducing
T3 construct: Expressed in CHO cells; cell pellets used in reducing Western blot; Construct is stated from position 1; also called AW2 (1-196); not shown: C-terminal His tag
T3 sequence (P51654 25-196): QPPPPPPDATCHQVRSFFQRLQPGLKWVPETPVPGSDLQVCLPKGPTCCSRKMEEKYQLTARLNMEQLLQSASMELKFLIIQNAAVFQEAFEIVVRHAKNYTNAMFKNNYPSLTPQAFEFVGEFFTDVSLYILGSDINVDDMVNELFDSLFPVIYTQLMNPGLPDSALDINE

T2 sequence (P51654 25-218): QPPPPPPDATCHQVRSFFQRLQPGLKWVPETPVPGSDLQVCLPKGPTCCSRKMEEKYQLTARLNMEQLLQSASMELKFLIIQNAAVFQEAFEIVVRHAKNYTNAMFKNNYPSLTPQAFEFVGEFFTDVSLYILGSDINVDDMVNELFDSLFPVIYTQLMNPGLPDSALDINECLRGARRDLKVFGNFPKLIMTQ

- binding result [1]: binds
- binding result [2]: no binding
- binding result [3]: no binding
B1: GT30 antibody (antibody, V domains shown)
VH: QVQLQQSGAELARPGASVKLSCRASGYTFTSYGISWMMQRTGQGLEWIGEIYPRSGITYYNEKFKGKATLTADKSSSTAYMQLSSLTSEDSAVYFCARDVSDGYLFPYWGQGTLVTVSA
VL: DIQMTQSPASLSASVGETVTITCRTSENIYSYLAWYQQKQGKSPQLLVYNAKTLPEGVPSRFSGSGSGTQFSLKINSLQPEDFGSYYCQHHYGTPPTFGGGTKLEIKR
